# Residue numbers refer to the chain shown, from its start. Names may count otherwise.
# T1: GST-BRAKJK (tomato (Solanum lycopersicum), labeled with RED-NHS)
# T1 chain: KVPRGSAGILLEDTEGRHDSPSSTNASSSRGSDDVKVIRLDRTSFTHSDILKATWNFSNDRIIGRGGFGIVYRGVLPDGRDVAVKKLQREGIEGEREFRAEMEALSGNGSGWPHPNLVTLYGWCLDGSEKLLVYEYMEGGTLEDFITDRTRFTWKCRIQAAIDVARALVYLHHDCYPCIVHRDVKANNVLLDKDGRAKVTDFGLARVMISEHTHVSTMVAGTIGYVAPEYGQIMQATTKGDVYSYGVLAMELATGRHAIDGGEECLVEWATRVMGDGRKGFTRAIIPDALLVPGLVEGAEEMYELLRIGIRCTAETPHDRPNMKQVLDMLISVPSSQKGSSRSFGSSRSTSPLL
# T2: GST-PSKR1JK (tomato (Solanum lycopersicum), UniProt A0A3Q7E8N4 1-1013, labeled with RED-NHS)
# T2 chain: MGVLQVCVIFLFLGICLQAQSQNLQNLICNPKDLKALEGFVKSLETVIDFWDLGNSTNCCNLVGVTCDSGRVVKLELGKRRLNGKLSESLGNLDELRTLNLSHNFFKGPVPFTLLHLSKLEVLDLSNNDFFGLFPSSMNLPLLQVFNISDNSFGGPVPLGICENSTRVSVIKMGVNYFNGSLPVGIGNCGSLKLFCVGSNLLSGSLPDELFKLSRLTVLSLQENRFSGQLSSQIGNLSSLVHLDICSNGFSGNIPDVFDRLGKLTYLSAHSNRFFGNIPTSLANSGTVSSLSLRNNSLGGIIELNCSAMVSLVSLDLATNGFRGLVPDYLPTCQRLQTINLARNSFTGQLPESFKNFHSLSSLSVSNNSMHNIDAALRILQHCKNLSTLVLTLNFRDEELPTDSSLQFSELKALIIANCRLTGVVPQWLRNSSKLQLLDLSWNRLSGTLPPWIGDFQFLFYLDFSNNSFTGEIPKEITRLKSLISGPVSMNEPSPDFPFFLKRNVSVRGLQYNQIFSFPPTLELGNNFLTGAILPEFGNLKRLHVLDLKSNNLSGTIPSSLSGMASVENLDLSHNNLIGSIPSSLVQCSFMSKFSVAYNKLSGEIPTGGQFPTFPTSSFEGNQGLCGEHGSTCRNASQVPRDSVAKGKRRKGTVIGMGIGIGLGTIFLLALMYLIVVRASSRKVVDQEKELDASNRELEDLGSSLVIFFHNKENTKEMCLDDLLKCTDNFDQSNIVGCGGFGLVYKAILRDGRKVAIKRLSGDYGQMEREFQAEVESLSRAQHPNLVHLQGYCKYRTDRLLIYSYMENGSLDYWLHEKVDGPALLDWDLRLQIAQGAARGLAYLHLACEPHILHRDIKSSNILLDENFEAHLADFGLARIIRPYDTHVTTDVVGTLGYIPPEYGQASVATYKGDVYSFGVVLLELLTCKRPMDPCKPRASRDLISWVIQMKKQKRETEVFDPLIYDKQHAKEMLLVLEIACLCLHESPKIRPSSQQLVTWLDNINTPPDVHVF
# B1: PSKR1JK^Y843F (phospho-mutated) (domain or fragment)
# chain: VRASSRKVVDQEKELDASNRELEDLGSSLVIFFHNKENTKEMCLDDLLKCTDNFDQSNIVGCGGFGLVYKAILRDGRKVAIKRLSGDYGQMEREFQAEVESLSRAQHPNLVHLQGYCKYRTDRLLIYSYMENGSLDYWLHEKVDGPALLDWDLRLQIAQGAARGLAFLHLACEPHILHRDIKSSNILLDENFEAHLADFGLARIIRPYDTHVTTDVVGTLGYIPPEYGQASVATYKGDVYSFGVVLLELLTCKRPMDPCKPRASRDLISWVIQMKKQKRETEVFDPLIYDKQHAKEMLLVLEIACLCLHESPKIRPSSQQLVTWLDNINTPPDVHVF
# B2: PSKR1JK, wild type (ligand of the MST) (domain or fragment)
# chain: B1 chain with F167Y
# B3: PSKR1JK^T890A (phospho-mutated) (domain or fragment)
# chain: B1 chain with F167Y, T214A
# B4: BRAKJK, wild type (ligand of the MST) (domain or fragment)
# chain: MPGRLVCGDSIETDKQLLLNLKSFLKEQNPVDKGFKYNHWNPTDLSPCRWPGISCTTSINRVTGIDLSESNLAGKLFNNFSAMTELNSLDLSKNTFSESIPSDLGWCRNLKFLNLSHNIIVGDLNLTGLNKLEVLDLTMNRIHGLTIPEICDNLAVANISNNNFTSESGFEFSHCKKLKYLDLSYNYLTGNLSFGLDMLNMFSASHNNLSGSLPSWIFTQNCSLQGLDLSENRFFGELPTSIANCKRLVELNLWGNSFSGSIPRGIGSVHSLKELCLGSNNFSSDVPDTLSGLNKLVFLDLSRNNFGGEIQEIFGQLTQVRFLVLHGNSYTGGIVSSGIPNLVNLSRLDLSDNHFSGPLPVEISEMKGLEFLILAHNQFSGNIPSEYGDLTALQAVDLSSNRINGSIPPSFGKLRSLLWLMLANNSLSGEIPSELGNCSSLLWLNLANNQLTGPIPPQLASIGADPMLTFLLNRGKEKLTASPGDCFAMRRWIPADYPPFSFIYPLLTGKSCRILGDKLFMGDGLMPLCEPGSNVRKNQVPGYIQLSDNKLSGEIPPEISNMKKMSMMHLGANEFSGRLPSEIGQLHLVVLNVSQNKFSGEIPKQIGHLKCLLNLDLSFNNFSGPFPVSFSNLHDLSKFNISYNQYIYGAVPETGQLLTFDKSSFLGNPLLRLPSFMHNSKNNTERNTNDTHKKPKKVGALLVIVVLVLAFLVCGVMSLVVCLLIKVPRGSAGILLEDTEGRHDSPSSTNASSSRGSDDVKVIRLDRTSFTHSDILKATWNFSNDRIIGRGGFGIVYRGVLPDGRDVAVKKLQREGIEGEREFRAEMEALSGNGSGWPHPNLVTLYGWCLDGSEKLLVYEYMEGGTLEDFITDRTRFTWKCRIQAAIDVARALVYLHHDCYPCIVHRDVKANNVLLDKDGRAKVTDFGLARVMISEHTHVSTMVAGTIGYVAPEYGQIMQATTKGDVYSYGVLAMELATGRHAIDGGEECLVEWATRVMGDGRKGFTRAIIPDALLVPGLVEGAEEMYELLRIGIRCTAETPHDRPNMKQVLDMLISVPSSQKGSSRSFGSSRSTSPLL
# B5: BRAKJK^Y1048F (phospho-dead) (domain or fragment)
# chain: T1 chain with Y303F
# B6: BRAKJK^T1027A (phospho-dead; printed BRAKJK^T1024A in the results) (domain or fragment)
# chain: T1 chain with T282A
# Target: T1, GST-BRAKJK
# Assay: MST
row,Kd,Binder
1,1.8 µM,B1
2,0.171 µM,B2
3,2.27 µM,B3

# Target: T2, GST-PSKR1JK
# Assay: MST
row,Kd,Binder
1,0.196 µM,B4
2,6.9 µM,B5
3,2.43 µM,B6
